Test results as given in patent US8030017B2, “Thermostable luciferases and methods of production” (Promega Corporation, priority 1997, dated 2011).

Experiments:
[1] = Robotic quantitative screen of E. coli lysates: luminescence activity (Li), expression/specific activity; format: biochemical; details: relative value; Control is Luc85-4F12 at 65° C. (=1)
Protocol: A plate containing cells is retrieved from the carousel and placed on the shaker for 3-5 minutes to fully mix the cells. The cells tend to settle from solution upon standing.
To measure Optical Density (O.D.), the plate is moved from the shaker to the locator near the luminometer; the lid is removed and the plate placed into the luminometer. The O.D. is measured using a 620 nm filter.
To prepare a cell lysate, the plate of cells is first retrieved from the refrigerator and mixed on the shaker to resuspend the cells. A new plate from the carousel without a lid is placed in the reagent dispenser and 20 μl of Buffer A is added to each well. This is placed in the pipetting station.
The plate is then moved to the reagent dispenser to add 175 μl of Buffer B, and then mixed on the shaker for about 15 minutes or more. The combination of the freeze/thaw and Buffer B will cause the cells to lyse.
(§1) One daughter plate is placed in the luminometer and the 1X assay method is used. After the assay, the plate is placed in the ambient incubator, and the second daughter plate is placed in the luminometer. For the second plate, the 0.02X assay method is used. This plate is discarded, and the first plate is returned from the incubator to the luminometer. The repeat assay method is used (i.e., no reagent is injected). Afterwards, the plate is again returned to the ambient incubator.
1X Assay reagent: 5 μM Luciferin; 175 μM ATP; 20 mM Tricine, pH 8.0; 0.1 mM EDTA
(§2) The following criteria were used for screening purposes. The temperature chosen for the enzyme stability parameter was such that the parent enzyme would decay 100 to 1000 fold over 10 hours (see Table 1). Criteria 1 is achieved manually; data for criteria 2-6 is generated by robotic analysis. For all criteria, the maximum value as described is selected. • 1. In vivo screen. The brightest clones are selected at a given temperature. • 2. Expression/specific activity. The value for normalized luminescence is calculated as the ratio of luminescence to optical density. The value is reported as the ratio with the reference value. • 3. Enzyme stability. Measurements of normalized luminescence of the incubated samples (3 taken over about 15 hours) are fitted to In(L)=In(L0)−(t/τ), where L is normalized luminescence and t is time. τ is a measure of the enzyme stability. The value is reported as the ratio with the reference value, and the correlation coefficients are calculated. • 4. Substrate binding. Measurements of normalized luminescence with 1X and 0.02X are taken at the initial reading set, and 1X and 0.06X are taken at the 5 hour set. The ratio of the 0.02X:1X and 0.06X:1X gives the relative luminescence at 0.02X and 0.06X concentrations. These values, along with the relative luminescence at 1X (i.e., 1), are fitted to a Lineweaver-Burk plot to yield the Km:app,total for the substrates ATP, luciferin, and CoA. The values are reported as the inverse ratio with the reference value, and the correlation coefficients are calculated. • 5. Signal stability. The luminescence of the initial IX luminescent reactions are re-measured 3 additional times over about 15 hours. These values are fitted to In(L)=In(L0)−(t/τ) and the integral over t (15 hours) is calculated. Signal stability is then calculated as S=(1−int(L)/L0t)^2. The values are reported as the inverse ratio with the reference value, and the correlation coefficients are calculated. • 6. Composite fitness. The values of criteria 2 through 5 are combined into a single composite value of fitness (or commercial utility). This value is based on a judgment of the relative importance of the other criteria. This judgment is given below:
Normalize luminescence data: For each measurement of luminescence in the eight daughter plates, the normalized luminescence is calculated by dividing the relative light units by the optical density of the original plate. […]

[2] = Robotic quantitative screen of E. coli lysates: enzyme stability (tau) at elevated temperature; format: physicochemical; details: relative value; Control is Luc85-4F12 at 65° C. (=1)
Protocol: Two white assay plates (Labsystems #9502887) are obtained from the plate feeder and placed in the pipetter. The incubation plate from the shaker is placed in the pipetter, and the lid removed and placed on the nearby locator. Two daughter plates are made using the pipetting procedure (see “Create Pair of Daughter Plates from Incubation Plate”). Afterwards, the lid is replaced on the parent plate, and the plate is placed in a high temperature incubator. [ranging from 31° C. to about 65° C. depending on the clone.]
To begin the second set of measurements, the plate from the high temperature incubator is placed in the shaker to mix.
In the final set of measurements, the plate from the high temperature incubator is again placed in the shaker to mix.
as §2
Calculate enzyme stability (τ): For each sample, use linear regression to fit In(L1x)=In(L0)−(t/τ) using the three luminescence measurements with 1X substrate concentrations (Plates 1, 5, 8). Also calculate the regression coefficient.
Calculate the reference-normalized values: For the criteria parameter of each sample, a reference-normalized value is determined by calculating the ratio or inverse ratio with the respective reference value. The reference-normalized values are Li/Lir, τ/τr, Kmr/Km:app,total, and Sr/S, where reference values are calculated from the equations of the appropriate reference surface.
“Enzyme stability” was determined by the rate of activity loss from cell lysates over 10 hours. In successive rounds of evolution the incubation temperature of the lysates was increased.
Robotic Automation: Robotic automation was used in the quantitative screens to accurately perform the large number of required quantitative assays on the cultured cells. […]

[3] = Robotic quantitative screen of E. coli lysates: signal stability (S), sustained enzymatic turnover; format: biochemical; details: inverse ratio with reference; Control is Luc85-4F12 at 65° C. (=1)
Protocol: as §1
The plate in the ambient incubator is returned to the luminometer and the repeat assay method is again used. The plate is returned afterwards to the ambient incubator.
The plate in the ambient incubator is returned to the luminometer and the repeat assay method is again used. The plate is discarded afterwards.
as §2
Calculate signal stability (S): For each sample, use linear regression to fit In(L)=In(L0)[…] using the four luminescence measurements of the initial microplate with 1X substrate concentrations (Plates 1, 3, 4, and 7). Also calculate the regression coefficient. From the calculated values of T and L0, calculate the integral of luminescence by int(L)=τL0(1−exp(−tf/τ)), where tf is the average time of the last measurement (e.g., 15 hours). The signal stability is calculated as S=(1−int(L)/Litf)^2, where Li is the initial measurement of normalized luminescence with 1× substrate concentration (Plate 1).
[Note: To correct for evaporation, an equation S=(1+K−int(L)/Litf)^2, may be used where 1/K=2(relative change of liquid volume at tf).]
Calculate the reference-normalized values: For the criteria parameter of each sample, a reference-normalized value is determined by calculating the ratio or inverse ratio with the respective reference value. […]

[4] = Michaelis-Menten constant for luciferin of purified mutants; format: biochemical; details: purified enzyme
Text: (§3) Substrate binding was screened by measuring an apparent composite Km (see Example 2) for luciferin and ATP. […] The Km for luciferin rose while the Km for ATP declined (Table 3). The reason for this change is unknown, although it can be speculated that more efficient release of oxyluciferin or luciferin inhibitors could lead to more rapid enzyme turnover.
(§4) Protein purification: Four mutants that are described herein (Luc[T249M], Luc49-7C6, Luc78-0B10, and Luc90-1B5) were purified using a previously published procedure (Hastings et al., 1996).

[5] = Michaelis-Menten constant for ATP of purified mutants; format: biochemical; details: purified enzyme
Text: as §3, §4

- Km [4]: 2.2 µM
B1: Luc90-1B5: mutant luciferase, SEQ ID NO:24 (protein)
chain: MADKNILYGPEPFYPLEDGTAGEQMFDALSRYADIPGCIALTNAHTKENVLYEEFLKLSCRLAESFKKYGLKQNDTIAVCSENGLQFFLPVIASLYLGIIVAPVNDKYIERELIHSLGIVKPRIVFCSKNTFQKVLNVKSKLKSIETIIILDLNEDLGGYQCLNNFISQNSDSNLDVKKFKPYSFNRDDQVALIMFSSGTTGLPKGVMLTHKNIVARFSLAKDPTFGNAINPTTAILTVIPFHHGFGMMTTLGYFTCGFRVVLMHTFEEKLFLQSLQDYKVESTLLVPTLMAFLAKSALVEKYDLSHLKEIASGGAPLSKEIGEMVKKRFKLNFVRQGYGLTETTSAVLITPKGDAKPGSTGKIVPFHAVKVVDPTTGKILGPNEPGELYFKGPMIMKGYYNNEEATKAIIDNDGWLRSGDIAYYDNDGHFYIVDRLKSLIKYKGYQVAPAEIEGILLQHPYIVDAGVTGIPDEAAGELPAAGVVVQTGKYLNEQIVQDYVASQVSTAKWLRGGVKFLDEIPKGSTGKIDRKVLRQMFEKHTNG
modifications: Mutant luciferase
- Luminescence (Li) [1]: 1.4743
- Enzyme stability (tau) [2]: 1.1154
- Signal stability (S) [3]: 1.0011
- Km [5]: 3 µM
